Assay results taken from the nanobody polyreactivity screen of Harvey et al. (2022).

Assay: yeast display, Sf9 membrane polyspecificity reagent, FACS + sequencing; frameworks hold sequencing errors
Method in brief: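 Nanobodies from a synthetic yeast display library (Saccharomyces cerevisiae BJ5465), induced 36–48 hours with galactose, were stained 1 hour at 4 °C with 10% biotinylated, detergent-solubilized Sf9 membrane reagent, enriched on streptavidin microbeads, then FACS-sorted. Anti-HA (expression) and streptavidin (reagent binding) fluorescence set low and high (top ~1%) gates. Polyreactivity labels come from the gate of origin. Genes were colony-PCR amplified, MiSeq 2 × 250 sequenced and filtered by CDR length.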

Row | Sequence | polyreactivity (PSR sort gate)
1 | QVQLVESGGGLVQAGGSLRLSCAASGRIFGYNDMGLYRQAPGKERELVAAINWTGGSTYYADSVKGRFTISRDNAKNTVYLQMNSLKPEDTAVYYCNADARTKWVQTHTDFITDYDYWGQGTQVTVSS | low polyreactivity
2 | QVQLVESGGGLVQAGGSLRLSCAASGFTFSYYAMGWYRQAPGKERELVASISRSGNTYYADSVKGRFTISRDNAKNTVYLQMNSLKPEDTAVYYCAAKRKSYYSYNFDYWGQGTQVTVSS | high polyreactivity
3 | QVQLVESGGGLVQAGGSLRLSCAASGITLGYYVMGWYRQAPGKERELVAAISSSGGRTYYADSVKGRFTISRDNAKNTVYLQMNSLKPEDTAVYYCAADLGRGIYDYWGQGTQVTVSS | low polyreactivity
4 | QVQLVESGGGLVQAGGSLRLTCAASGFNFWDYAMGWYRQAPGKERELFAAISDSGGDTYYADSVKGRFTISRDNAKNTVYLQMNSLKPEDTAVYYCASDVELWVFRGQQYDYWGQGTQVTVSS | low polyreactivity
5 | QVQLVESGGGLVQAGGCLRLSCAASGSIFWGYAMGWYRPAPGKERELVAAITDSGGRTYYADSVKGRFTISRDNAKNTVYVQMNSQKPEDTAVYYCAADYYSQYYYYAVPDRDYWGQGTQVTVSS | low polyreactivity
6 | QVQLVESGGGLVQAGGSLRLSCAASGSILRLYAMGWYRQAPGKERELVAAISSGGSTYYADSVKGRFPISRDNAKNTVYLQMNSLKPEDTAVYYCAAGVFWSWRYAYDYWGKGTQVTVSS | low polyreactivity
7 | QVQLVESGGGLVQAGGSLRLSCAASGFTVEKNAMGWYRPAPGNERELVAAITKSGGSTYYADSVKGRFTISRDNAKNTVYLQMNSLKPEDTAVYFCNAPPWSRYYYDLLRHDYWGQGTQVTVSS | low polyreactivity
8 | QVQLVESGGGLVQAGGSLRLSCAASGRTLQIYVMGWYRQAPGKERELVASITGRGGSTYYADSVKGRFTISRDNAKNTVYLQMNSLKPEDTAVYYCARRYYRLDYWGQGTQVTVSS | high polyreactivity
9 | QVQLVESGGGLVQAGGSRRLSCDASGRTFGYYAMGWYRQAPGKERELVAAISSSGGSTYYADSVKRRFTISRDNAKNTVYLQMNRLKPEDTAVYYCAADTSDTPDYYYWGPGTQVTVSS | low polyreactivity
10 | QVQLVESGGGLVQAGGSLRLSCAASGSILLVYAMGWYRPAPGKERELVAAIRWSGGSTYYADSVKGRFTISRDNAKNTVYLQMNSLKPEDTAVYYCNAGESYSVKGGPYDSDYWGQGTQVTVSS | low polyreactivity
11 | QVQLVESGGGLVQAGGSLRLSCAASGRTFRINAMGWYRQAPGKERELVAAITSIAGNTYYADSVKGRFTISRDNAKNTVYLQMNSLKPEDTAVYYCAVDSVPWGFRGAYGLTRYYYWGQGTQVTVSS | low polyreactivity
12 | QVQLVESGGGLVQAGGSLRLSCAASGGIFYDYAMGWYRQAPGKERELVAAISQSGGSTYYADSVKGRFTISRDNAKNTVYLQMNSLKPEDTAVYYCAADYLDSTYGYVYGWDDSWGQGTQVTVSS | low polyreactivity
13 | QVQLVESGGGLVQAGGSLRLSCAASGRIFGKYAMGWYRQAPGKERELVAAITRRGGSTYYADSVKGRFTISRDNAKNTVYLQMNSLKPEDTAVYYCNAALTGYRVSPTRHRYDYWGQGTQVTVSS | high polyreactivity
14 | QVQLVYTLGGLDQAGGSLRVSCYASGRTFVYYPMGWYRQAPGKERELVAAITRSGGRTYYADSVKGRFTISRDNAKNTVYLQKYSMKPEETAVYYCAARYCDNPYWFDYWGQGTQVTVSS | high polyreactivity
15 | QVQLVESGGGLVQAGGSLRLSCAASGFIFGINAMGWYRQEPGKERELFAAISKRTGSTYYADSVKGRFTISRDNAKNTVYLQMNSLKPEDTAFYYCNVVRYNGLDKYEYWGQGTQVTVSS | high polyreactivity
16 | QVQLVESGGGLFQAGGSLRLSCAPSGNNFYGNDMGWYRQAPGKERDLVAAISRGGSTYYADSVKGRFTSSRDNAMNTVYLQMNSLKPEDSEVFYCAADYAYTTISWDDYWGQGTLVTVSS | low polyreactivity
17 | HVQHVESGGGLVQAGGSLRLSCAASGRIFRPNAMGRYRQAPGKERELVAAITSNGGRTYYADSVKGRFTISRDNAKTTVYLQMTSQKPEDTAVYYCNAAPFRSGYGYWGQGTQVNVSS | high polyreactivity
18 | QVQLVESGGGLVQAGGSLRLSCAASGIIFVHYALGWYRQAPGKEWQLVAAITSGGSTKYADSVKGRFTISRDNAKNTVYLQMNSLKPEDTAVYYCAAGHYVYWYRYQLGGYNYWGIGTQVTVSS | high polyreactivity
19 | QVQLVESGGGLVQAGGSRRLSCAASGSTFEYNAMGWYRQAPGKERELVASSTNYADSVKGRFTISRDNAKNTVYLPMNSLKPEDTAVYYCAREQGVNRNHDYWGQGTQVTVSS | low polyreactivity
20 | QVQLVESGGGLVQAGGSLRLSCAASGRILRSYAMGWYRQAPGKERELVAAISWRGGSTYYADSVKGRFTISRDNAKNTVYLQMNSLKPEDTAVYYCAKRSYYPARYDYWGQGTQVTVSS | high polyreactivity
21 | QVQLVESGGGLVQAGGSLRLSCAASGRIFYYYGMGWYRQAPGKERELVAAISNGGRTYYADSVKGRFTISRDNAKNTVYLQMNSLKPEDTAVYYCAALTRGRGGYDYWGLGTQVTVSS | high polyreactivity
22 | QVQLVESGGGLVQAGGSLRLSCAASGSIFDLYAMGWYRQAPGKERELVADISIADSTNYADSVKGRFTISRDNAKNTVYLQMNSLKPEDTGVYYCNADVWWYSYEYDYWGQGTQVTVSS | low polyreactivity

Row | Sequence | polyreactivity (PSR sort gate)
23 | QVQLVESGGGLVQAGGSLRLSCAASGSIFRIYAMGWYRQAPGKERELVAAISFSTGSRTYYADSVKGRFTISRDNAKNTVYLQMNSLKPEDTAVFYCNAESYYDYNYWGQGTQVTVSS | low polyreactivity
24 | QVQLVESGGGLVQAGGSLRLSCAASGSTFWPYAMGWYRQAPGKERELVAAIRVIGGSTYYADSVKGRFTISRDNAKNSVYLQMNSLKPEDTAVYYCNAYRPGGARFYARYRYDYWGQGTQVTVSS | low polyreactivity
25 | QVQLVESGGGLVQAGGSLRLSCAASGITFTENVMGWYRQAPGKERELVAGISRSGGITYYADSVKGRFTISRDNAKNTVYLQMNSLKPEDTAVYYCAAEEAYRSRRGGFDYWGQGTQVTVSS | high polyreactivity
26 | QVQLVESGGGLVQAGGSLRLSCAASGLRFNVYAMGWYRQAPGKERELVAAITSGGSTHYADSVKGRFTISRDNAKNTVYLQMNSLKPEDTAVYYCNKELATARGQSLYRTYSGYGYRGQGTQVTVSS | high polyreactivity
27 | QVQLVESGGGLVQAGGSLRLSCAASGSIFVQNAMGWYRQAPGTERELVAVINSGDSTNYADSVKGRFTISRDNAKNTVDLQMNSLKPEDTAVYYCAVDDVSYYYLRAYNYELSWYCSGLDYWGQGTQVTVSS | low polyreactivity
28 | QVQLVESGGGLVQAGGSLRLSCAASGSIFDSYVMGWYRQAPGKERELVAAITYSGGSTYADSVKGRFTISRDNAKNTVYLQMNSLKPEDTAVYYCAADLSGGSRYDYWGQGTQVTVSS | low polyreactivity
29 | QVQLVESGGGLVQTGGSLRLSCAASGSTYYYYAMGWSRPAPGKERELVAGISWGGGSTYFADSVKGRFTISRDNAMNSVYLQMNSLKPEDTAVYYCNALNPKSYDYWGQGTQVTVSS | low polyreactivity
30 | QVQLVESGGGLVQAGGSLRLSCAASGSTFGGYAMGWYRQAPGKERELVASISGGTRTNYADSVKGRFTISRDNAKNTVYLQMNSLKPEDTAVYYCAAEVGLPTWYTLPVDDYDYWGQGTQVTVSS | low polyreactivity
31 | QVQLVESGGGLVQAGGSLRLSCAASGRIITYYAMGWYRQAPGKERELVAAISRTGGTTYYADSVKGRFTISRDNAKNTVYLQMNSLKPEDTAVYYWNAVKAPYLRYDYWGQGTQVTVSS | high polyreactivity
32 | QVQLVESGGGLVQAGGSLRLSCAASGSIFRPNVMGWYRQEPGKERELVATISWSGGSTYYADSVKGRFTISRDNASNTVYLQMNSLKPEDTAVYYCAALWPYGYWGQGTEVTVSS | low polyreactivity
33 | QVQLVESGGGLVQAGGSLRLSCAASGFTFPVYAMGWYRQAPGKERELVAAISSGGRTDYADSVKGRFTISRDNAKNTVYLQMNSLKPEDTAVYYCNKARSDHDGRNDSWGQGTQVTVSS | high polyreactivity
34 | QVQLVESGGGLVQAGGSLRLSCAASGFILPYYTMGWYRQAPGKERELVAAITYSGASTFYADSVKGRFTISRDNAKNTVYLQMNSLKPEDTAVYYCAKEWSGWYESPLDDGDYDYWGQGTQVTVSS | low polyreactivity
35 | QVQLVESGGGLVQAGGRLRLSCAASGRTFRRYTMGWYRQAPGKERELVAAISRNGGSTYYADSVKGRFTISRDNAKNTVYLQMNSLKPEDTAVYYCAALRYAYIADYDYWGQGTQVTVSS | high polyreactivity
36 | QVQLVESGGGLVQAGGSLRLSCAASGSTFPHYTMGWYRQAPGKERELVAVISRSGRTYYADSVKGRFTISRDNAKNTVYLQMNSLKPEDTAVYYCAVLVGRLVWSYNHWGQGTQVTVSS | high polyreactivity
37 | QVQLVESGGGLVQAGGSLRLSCAASGSTLQINGMGWYRQAPGKERELVAAISIGSDTNYADSVKGRFTISRDNAKNTEMNSLKPEDTAVYYCAAQRRYHQDTTIGPGNYYYWGQGTQVTVSS | low polyreactivity
38 | QVQLQESGGGLVQAGGSLRLGCAASGYISGFNEMGWYRQAPGKGRELDAAITYGGITNYADSVKGRFTISRDNAKNTVYLQMNSLKPEDTAMYYCAAGDFDQSNHAYWGQDTQVTVSS | high polyreactivity
39 | QFQLVESGGGLVKAGGSLRLSSAASGGTFGYYTMGWYRQAPGKERELVAAISSGGGTDYADSVKGRFTISRDNAKNTVYFQMTSLKPEDTALYYCATVSDYPWRYDYWVQGTQVTVSS | low polyreactivity
40 | QVQLVESGGGLVQAGGSLRLSCAASGFTFTQNAAMGWYRQAPGKERELVGAISSGGRTYFADSVKGRFTISRDNAKNTVYLQMNSLKPEDTAVYYCAAVYRRSDFRGAKDGYYYWGQGTQVTVSS | low polyreactivity
41 | QVQLVESGGGLVQAGGSLRLSCAASGFTFRKNAMGWYRQAPGKERELVAAIRGSAGSTYYADSVKGRFTISRDNAKNTVYLQMNSLKPEDTAVSYCATGGYPSLWDGYGYWGQGTQVTVSS | low polyreactivity
42 | EVQLVESGGGLVQPGGSLRLSCAASGYIYRRYRMGRYRQAPGKGREFVAAISGGSSTNYADSVKGRFTNSRDNSKNTVYLQMNSLRAEDTAVYYCAAYKIDSDPRVYWGQGTQVTVSS | low polyreactivity
43 | QVQLVESGGGLVQAGGSLRLSCAASGFIFPGNARGWYRQAPGKERELVAAISNSGSRTYYADSVKGRFTISRDNAKNTVYLQMNSLKPEDTAVYYCAALNYHKFAHKYDYWGQGTQVTVSS | low polyreactivity
